This experiment concerns the target α-synuclein 1-140 (UniProt P37840). Briefly: membrane pelleting, Western blot of dimers/trimers. Conditions: reference: WT (unphosphorylated) α-synuclein; sites S129. For orientation: In western blotting, separated proteins are transferred to a membrane and probed.

On to “α-synuclein 1-140 (from UniProt P37840) pS129 α-synuclein”, for which the “other: oligomer/monomer ratio” value is “stronger; reference 0.22 ± 0.07”.

The values are drawn from publication PMC10881165.
